Laboratory results from PMC5040351 (Arteriosclerosis, thrombosis, and vascular biology, 2016).

What was measured:
[1] = molecular target: endogenous calnexin (CNX) (human (endogenous in HEK293T and HeLa)) (UniProt P27824); assay: co-IP
[2] = molecular target: HA-tagged calnexin with deletion of the lumenal repeat segment (CNXΔ276-409) (UniProt P27824); assay: co-IP
[3] = molecular target: ABCA1-FLAG (ATP-Binding Cassette A1 cholesterol transporter, FLAG-tagged) (UniProt O95477); assay: co-IP
[4] = molecular target: myristoylated NefSF2 protein (HIV-1 SF2, UniProt P03407 1-210, myristoylated); assay: SPR

In the case of “Nef K4A (single lysine mutant of Nef_(cons)) (natural protein)”, the percent reduction of co-precipitated Nef against WT Nef [1] is reported as 80%.

“HIV-1 Nef expressed from the Nef_(cons) vector (wild type) (natural protein)” showed a percent reduction of co-precipitated Nef against WT CNX [2] of 40%.

In the case of “Nef K4,7A (double lysine mutant of Nef_(cons)) (natural protein)”, the percent reduction of co-precipitated Nef against wild-type Nef [3] is reported as 30%.

In the case of “Nef K7A (single lysine mutant of Nef_(cons)) (natural protein)”, the percent reduction of co-precipitated Nef against WT Nef [1] is reported as 70%.

B1: cytoplasmic tail of calnexin (CNX-CT), recombinant (domain or fragment, UniProt P27824 503-592, looked up)
chain: CSGKKQTSGMEYKKTDAPQPDVKEEEEEKEEEKDKGDEEEEGEEKLEEKQKSDAEEDGGTVSQEEEDRKPKAEEDEILNRSPRNRKPRRE
Work on B1 yielded a Kd [4] of 9.4 nM, a koff [4] of 0.00857 s⁻¹ and a kon [4] of 908000 M⁻¹ s⁻¹.
